Experimental data reported in patent US7582290.

Legend:
[1] = target: Elongation factor 2 (EF-2) with glycine to arginine mutation at codon 705, in DPL cells (derived from PER.C6) (human) (UniProt P13639); test: cell-based or functional assay
[2] = target: Elongation factor 2 (EF-2), wild type, endogenous in PER.C6 and 293 cells (human) (UniProt P13639); test: cell-based or functional assay

Diphtheria toxin (DT) (from UniProt P00588 33-567) (enzyme)
cell growth in the presence of DT (DPLR1 cells) [1]: 100 pM | cell survival in the presence of DT (DPLR3 cells) [1]: 10 nM | resistance of cells to DT (DPL cells) [1]: 1 nM | cell death in the presence of DT (293 wt cells) [2]: 100 pM | cell death in the presence of DT (PER.C6 cells) [2]: 100 pM | cell death within 24 hrs in the presence of DT (PER.C6 and 293 cells) [2]: 10 pM
